The values below come from paper PMC5792450, “PRRT2 Regulates Synaptic Fusion by Directly Modulating SNARE Complex Assembly” (Cell Reports, 2018).

Usually Kd stands for the concentration at which binding is half-saturated. Lower therefore signals a tighter complex.

The assay has as its target T1, t-SNARE (syntaxin1a/SNAP25) (UniProt P32851 1-288; P60879 1-206).
T1 construct: syntaxin1a; SNAP25; also called t-SNARE complexes; synaptic t-SNAREs
In words: MST; t-SNARE or assembled SNARE complex titrated in solution, up to ∼150 μM t-SNARE and ∼60 μM SNARE complex; binding not saturated; soluble conditions; Syt1 tested likewise. To be noted: both partners purified.

T1 sequence (P32851 whole entry, chain 1 of 2): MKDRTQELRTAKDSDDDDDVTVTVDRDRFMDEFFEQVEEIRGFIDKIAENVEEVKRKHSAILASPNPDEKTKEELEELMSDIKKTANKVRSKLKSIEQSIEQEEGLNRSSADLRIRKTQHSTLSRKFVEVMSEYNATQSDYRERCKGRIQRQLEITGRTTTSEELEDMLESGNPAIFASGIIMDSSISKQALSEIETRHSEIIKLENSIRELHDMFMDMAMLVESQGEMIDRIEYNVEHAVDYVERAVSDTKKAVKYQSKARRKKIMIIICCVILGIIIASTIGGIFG
T1 sequence (P60879 whole entry, chain 2 of 2): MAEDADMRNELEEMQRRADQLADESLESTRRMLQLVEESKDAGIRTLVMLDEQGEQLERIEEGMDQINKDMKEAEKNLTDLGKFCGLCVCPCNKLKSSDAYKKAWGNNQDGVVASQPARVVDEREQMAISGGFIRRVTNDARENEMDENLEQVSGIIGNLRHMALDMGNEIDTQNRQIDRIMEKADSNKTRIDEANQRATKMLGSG

B1: proline-rich transmembrane protein 2 (PRRT2), full-length, wild type (natural protein, human, UniProt Q7Z6L0 1-340, looked up)
chain: MAASSSEISEMKGVEESPKVPGEGPGHSEAETGPPQVLAGVPDQPEAPQPGPNTTAAPVDSGPKAGLAPETTETPAGASETAQATDLSLSPGGESKANCSPEDPCQETVSKPEVSKEATADQGSRLESAAPPEPAPEPAPQPDPRPDSQPTPKPALQPELPTQEDPTPEILSESVGEKQENGAVVPLQAGDGEEGPAPEPHSPPSKKSPPANGAPPRVLQQLVEEDRMRRAHSGHPGSPRGSLSRHPSSQLAGPGVEGGEGTQKPRDYIILAILSCFCPMWPVNIVAFAYAVMSRNSLQQGDVDGAQRLGRVAKLLSIVALVGGVLIIIASCVINLGVYK
notes: PRRT2, human, full length, cloned into pGEX6p-1; In the fusion, docking and FRET assays it was reconstituted into liposomes; also called purified PRRT2; recombinant PRRT2; source: E. coli Rosetta2(DE3), purified (glutathione agarose, cleaved off the resin with PreScission Protease)
In the case of B1, the Kd was no less than 50 µM.
